# B1: Ex. 11: fusion protein: 18-amino acid peptide DD2 from DOC-2/DAB2 with 7 Arg transporting domain at C-terminus of TRAIL95-281, MMP and uPA sites (protein)
# chain: TSEETISTVQEKQQNISPLVRERGPQRVAAHITGTRGRSNTLSSPNSKNEKALGRKINSWESSRSGHSFLSNLHLRNGELVIHEKGFYYIYSQTYFRFQEEIKENTKNDKQMVQYIYKYTSYPDPILLMKSARNSCWSKDAEYGLYSIYQGGIFELKENDRIFVSVTNEHLIDMDHEASFFGAFLVGCAACAAACGGGPLGLAGRVVRRRRRRRRGGGFQLRQPPLVPSRKGE
# modifications: synthesized, a fusion protein comprising: a fragment of TRAIL protein, a fragment of peptide DD2 derived from DOC-2/DAB2, cleavage sites recognized by uPA and MMP, an arginine transporting domain and a cysteine-alanine-glycine steric linker.
# notes: fusion protein: 18-amino acid peptide DD2 from DOC-2/DAB2 with 7 Arg transporting domain at C-terminus of TRAIL95-281, MMP and uPA sites
# B2: Ex. 5: fusion protein: 34-amino acid fragment of human fetoprotein at N-terminus of TRAIL95-281, uPA and MMP cleavage sites (protein)
# chain: LSEDKLLACGEGAADIIIGHLCIRHEMTPVNPGRVVRPLGLAGTSEETISTVQEKQQNISPLVRERGPQRVAAHITGTRGRSNTLSSPNSKNEKALGRKINSWESSRSGHSFLSNLHLRNGELVIHEKGFYYIYSQTYFRFQEEIKENTKNDKQMVQYIYKYTSYPDPILLMKSARNSCWSKDAEYGLYSIYQGGIFELKENDRIFVSVTNEHLIDMDHEASFFGAFLVG
# modifications: synthesized, a fusion protein comprising: a fragment of TRAIL protein, a fragment of human fetoprotein and cleavage sites recognized by uPA and MMP.
# notes: fusion protein: 34-amino acid fragment of human fetoprotein at N-terminus of TRAIL95-281, uPA and MMP cleavage sites
# B3: Ex. 15: fusion protein: 15-amino acid fragment of PH domain of TCL1 protein with antennapedia sequence at C-terminus of TRAIL121-281, MMP and uPA sites (protein)
# chain: RVAAHITGTRGRSNTLSSPNSKNEKALGRKINSWESSRSGHSFLSNLHLRNGELVIHEKGFYYIYSQTYFRFQEEIKENTKNDKQMVQYIYKYTSYPDPILLMKSARNSCWSKDAEYGLYSIYQGGIFELKENDRIFVSVTNEHLIDMDHEASFFGAFLVGGSPLGLAGRVVRDRQIKIWFQNRRMKWKKAVTDHPDRLWAWEKF
# modifications: synthesized, a fusion protein comprising: a fragment of TRAIL protein, a fragment of PH domain of TCL1 protein - acting as Akt coactivator, cleavage sites recognized by uPA and MMP, an antennapedia transporting domain and a glycine-cysteine linker.
# B4: Ex. 4: fusion protein: 34-amino acid fragment of human fetoprotein at C-terminus of TRAIL121-281, MMP and uPA cleavage sites (protein)
# chain: RVAAHITGTRGRSNTLSSPNSKNEKALGRKINSWESSRSGHSFLSNLHLRNGELVIHEKGFYYIYSQTYFRFQEEIKENTKNDKQMVQYIYKYTSYPDPILLMKSARNSCWSKDAEYGLYSIYQGGIFELKENDRIFVSVTNEHLIDMDHEASFFGAFLVGPLGLAGRVVRLSEDKLLACGEGAADIIIGHLCIRHEMTPVNPG
# modifications: synthesized, a fusion protein comprising: a fragment of TRAIL protein, a fragment of human fetoprotein and cleavage sites recognized by uPA and MMP.
# notes: fusion protein: 34-amino acid fragment of human fetoprotein at C-terminus of TRAIL121-281, MMP and uPA cleavage sites
# B5: Ex. 7: fusion protein: 8-amino acid fragment of human fetoprotein at C-terminus of TRAIL95-281, cysteine-alanine linker, MMP and uPA cleavage sites (protein)
# chain: TSEETISTVQEKQQNISPLVRERGPQRVAAHITGTRGRSNTLSSPNSKNEKALGRKINSWESSRSGHSFLSNLHLRNGELVIHEKGFYYIYSQTYFRFQEEIKENTKNDKQMVQYIYKYTSYPDPILLMKSARNSCWSKDAEYGLYSIYQGGIFELKENDRIFVSVTNEHLIDMDHEASFFGAFLVGCAACAAACPLGLAGRVVREMTPVNPG
# modifications: synthesized, a fusion protein comprising: a fragment of TRAIL protein, a fragment of human fetoprotein, cleavage sites recognized by uPA and MMP and a flexible cysteine - alanine linker.
# notes: fusion protein: 8-amino acid fragment of human fetoprotein at C-terminus of TRAIL95-281, cysteine-alanine linker, MMP and uPA cleavage sites
# B6: Ex. 16: fusion protein: hexapeptide inhibitor of E2F with antennapedia sequence at N-terminus of TRAIL121-281, uPA and MMP sites (protein)
# chain: FWLRFTKPRRPYRVVRPLGLAGRVAAHITGTRGRSNTLSSPNSKNEKALGRKINSWESSRSGHSFLSNLHLRNGELVIHEKGFYYIYSQTYFRFQEEIKENTKNDKQMVQYIYKYTSYPDPILLMKSARNSCWSKDAEYGLYSIYQGGIFELKENDRIFVSVTNEHLIDMDHEASFFGAFLVG
# modifications: synthesized, a fusion protein comprising: a fragment of TRAIL protein, a peptide inhibitor of E2F, cleavage sites recognized by urokinase uPA and metalloprotease MMP and an antennapedia transporting domain.
# What was measured:
# [1] = test system: MES-SA; experiment: MTT cytotoxicity test, MES-SA (human uterine sarcoma); format: cell-based; settings: for MES-SA IC50: continuous incubation over 72 h, test MTT; for MES-SA mean (IC50): Table 4, mean/SD part
# Source text: (§1) MTT assay is a colorimetric assay used to measure proliferation, viability and cytotoxicity of cells. It consists in decomposition of a yellow tetrazolium salt MTT (4,5-dimethyl-2-thiazolyl)-2,5-diphenyltetrazolium bromide) to the water-insoluble purple dye formazan by mitochondrial enzyme succinate-tetrazolium reductase 1. MTT reduction occurs only in living cells. Data analysis consists in determining IC50 concentration of the protein (in ng/ml), at which the 50% reduction in the number of cells occurs in the population treated compared to control cells. Results were analyzed using GraphPad Prism 5.0 software. The test was performed according to the literature descriptions (Cells, J E, (1998). Cell Biology, a Laboratory Handbook, second edition, Academic Press, San Diego; Yang, Y., Koh, L W, Tsai, J H., (2004); Involvement of viral and chemical factors with oral cancer in Taiwan, Jpn J Clin Oncol, 34 (4), 176-183). Cell culture medium was diluted to a defined density (10^4-10^5 cells per 100 μl). Then 100 μl of appropriately diluted cell suspension was applied to a 96-well plate in triplicates. Thus prepared cells were incubated for 24 h at 37° C. in 5% or 10% CO2, depending on the medium used, and then to the cells (in 100 μl of medium) further 100 μl of the medium containing various concentrations of tested proteins were added. In the case of combination hTRAIL114-281 and p21WAF effector protein, 100 μl of the medium containing mixture of hTRAIL114-281 and p21WAF effector protein in molar ratio 1:1 was added. After incubation of the cells with tested proteins over the period of next 72 hours, which is equivalent to 3-4 times of cell division, the medium with the test protein was added with […] of MTT working solution [5 mg/ml], and incubation was continued for 3 h at 37° C. in 5% CO2. Then the medium with MTT solution was removed, and formazan crystals were dissolved by adding 100 μl of DMSO. After stirring, the absorbance was measured at 570 nm (reference filter 690 nm).
# (§2) The results of in vitro cytotoxicity tests are summarized as IC50 values (ng/ml), which corresponds to the protein concentration at which the cytotoxic effect of fusion proteins is observed at the level of 50% with respect to control cells treated only with solvent. Each experiment represents the average value of at least two independent experiments performed in triplicates. As a criterion of lack of activity of protein preparations the IC50 limit of 2000 ng/ml was adopted.
# [2] = test system: HCT-116; settings: for HCT116 IC50: continuous incubation over 72 h, test MTT; for HCT116 mean (IC50): Table 4, mean/SD part
# [3] = test system: SK-MES-1; experiment: MTT cytotoxicity test, SK-MES-1 (human lung cancer); format: cell-based; settings: for SK-MES-1 IC50: continuous incubation over 72 h, test MTT; for SK-MES-1 mean (IC50): Table 4, mean/SD part
# Source text: as §1, §2
# [4] = test system: MES-SA/Dx5; experiment: MTT cytotoxicity test, MES-SA/Dx5 (multidrug-resistant human uterine sarcoma); format: cell-based; settings: for MES-SA/Dx5 IC50: continuous incubation over 72 h, test MTT; for MES-SA/Dx5 mean (IC50): Table 4, mean/SD part
# Source text: as §1, §2
# Cells selected for this test included tumor cell lines that are naturally resistant to TRAIL protein (the criterion of natural resistance to TRAIL: IC50 for TRAIL protein >2000), as well as tumor cell lines sensitive to TRAIL protein and resistant to doxorubicin line MES-SA/DX5 as a cancer line resistant to conventional anticancer medicaments.
# [5] = test system: MCF10A; experiment: MTT cytotoxicity test, MCF10A (mammary epithelial cells); format: cell-based; settings: for MCF10A IC50: continuous incubation over 72 h, test MTT; for MCF10A mean (IC50): Table 4, mean/SD part
# Source text: as §1, §2
# [6] = test system: TRAIL sensitive cell lines; experiment: in vitro cytotoxicity tests, TRAIL sensitive cell lines; format: cell-based; settings: continuous incubation over 72 h, test MTT; versus rhTRAIL 95-281 (cell line not given)
# Source text: as §1, with “nm). […]” for “nm).”
# [7] = test system: A549; experiment: MTT cytotoxicity test, A549 (human lung cancer); format: cell-based; settings: for A549 IC50: continuous incubation over 72 h, test MTT; for A549 mean (IC50): Table 4, mean/SD part
# Source text: as §1, §2
HCT116 IC50 [2] [ng/mL],HCT116 mean (IC50) [2] [ng/mL],Molecule,MES-SA IC50 [1] [ng/mL],SK-MES-1 IC50 [3] [ng/mL],MES-SA/Dx5 IC50 [4] [ng/mL],MCF10A IC50 [5] [ng/mL],IC50 [6] [ng/mL],A549 IC50 [7] [ng/mL],MES-SA mean (IC50) [1] [ng/mL],SK-MES-1 mean (IC50) [3] [ng/mL],MES-SA/Dx5 mean (IC50) [4] [ng/mL],MCF10A mean (IC50) [5] [ng/mL],A549 mean (IC50) [7] [ng/mL]
84.29,,B1,104.4,33.48,8.85,133.3,63,257,,,,,
,179.8,B2,,,,,,,95.00,79.65,11.16,8949,3000
,603.5,B3,,,,,,,123.0,78.40,328.9,1000,1000
32.25,,B4,205.3,10.11,11.36,>2000,,>2000,,,,,
63.5,,B5,>2000,36.6,22.11,>2000,105,>2000,,,,,
,15.85,B6,,,,,,,8.460,3.045,1.421,92.28,42.85

# — US20140031283A1, “ANTICANCER FUSION PROTEIN” (ADAMED SP. Z O.O., priority 2011, published 2014)
